Results as given in patent US20140289906A1, “Compositions Having Dicamba Decarboxylase Activity and Methods of Use” (priority 2013, published 2014).

What was measured:
[1] = GC/MS detection of 2,5-dichloro phenol (2,5-DCP); kinetic determination; assay type: biochemical; details: purified protein, dicamba
[2] = GC/MS detection of 2,5-dichloro anisole (2,5-DCA), toluene trapping or head-space; assay type: biochemical; details: purified protein, dicamba, toluene capturing
Procedure: Alternatively, dicamba decarboxylase activity can be monitored by measuring decarboxylation products other than CO2 using product detection methods. The decarboxylation product of dicamba, 2,5-dichloro anisole or 2,5-DCA (FIG. 1C), is a volatile compound with a flash point of 21° C. To capture this volatile compound for detection, 140 ul of toluene solution is added on top of 1 ml reaction mixture to form a trapping layer in a 1.5 ml eppendorf tube. […] The reaction is kept still at room temperature overnight before being vortex mixed and centrifuged at 14,000 rpm for 15 minutes. The top toluene phase is carefully removed using a micropipette and transferred into a 12×32 mm polypropylene vial (Vial 11 mm) from MicroLiter Analytical Supplies, Inc. (catalog number 11-5300-100). The vial is sealed with Crimp seal (11 mm with FEP/Nat Rubber) from MicroLiter Analytical Supplies, Inc. (catalog number 11-0020A) using a E-Z Crimper™ 11 mm from Wheaton Inc. 1 ul of the toluene mixture is taken from the sealed vials and injected in splitless mode into a GC/MS system for sample analysis (Agilent GC/MS system with a 6890A GC, a 5973N MSD and a CTC CombiPAL auto-sampler or with a 7890A GC, a 5975C MSD and an Agilent GC Sampler 80 auto-sampler). The GC parameters are: Agilent DB-5MS column (30 m length, 0.25 mm diameter, 0.25 um film) or equivalent; The GC inlet temperature, 250° C.; Carry gas, helium in constant flow mode (1.2 mL/min); The GC oven temperature program, initial temperature at 70° C. for 1 min, ramping to 200° C. at 15° C./min, and then ramping to 250° C. at 30° C./min. MS data acquisition is done in SIM (selected ion monitoring) mode, monitoring the positive ion at M/Z 176 for the molecular ion of […]. The solvent delay for MS acquisition is set at 4 min. Another method for detection of 2,5-DCA is a head-space GC/MS method. Briefly, reaction mixtures in 500 ul reaction volume are prepared in 1.5 ml 12×32 mm glass vials (Microliter Analytical Supplies, Cat#11-1200) for head space analysis. Glass vials are sealed with magnetic cap from MicroLiter Analytical Supplies, Inc. (catalog number 11-0030AT) using a E-Z Crimper™ 11 mm from Wheaton Industries Inc. The reaction is carried out at room temperature for various amount of time and stopped by heating at 95° C. for 5 min. The reaction vial is transferred to a agitator for incubation at 80° C. for 5 min at 500 rpm. With a syringe preheated at 80° C., 1000 uL of head space is injected with sample fill speed at 100 uL/sec. GC/MS parameters for headspace analysis are the same as for liquid sample analysis.

[3] = LC-MS/MS detection of 4-chloro-3-methoxy phenol; assay type: biochemical; details: purified protein, dicamba
[4] = Dicamba decarboxylation activity of computationally designed protein variants and parents (Tables 4, 5); details: native proteins and designed variants; assay not specified
[5] = 14C assay: 14CO2 capture from [14C]-carboxyl-labeled dicamba with IPTG-induced recombinant E. coli cells; details: dicamba decarboxylation activity
[6] = 14C assay: 14CO2 capture from [14C]-carboxyl-labeled dicamba with purified protein; assay type: biochemical
[7] = Enzyme kinetic characterization (kcat, KM, kcat/KM) of dicamba decarboxylase variants (Table 9)

Molecule | 2,5-DCP product detected [1] | 2,5-DCA product detected [2] | 4-chloro-3-methoxy phenol product detected [3] | dicamba decarboxylase activity (statement in the description) [4] | Enzymatic Detection level [5] | CO2 product detected [6] | protein kinetic activity (substrate concentration versus reaction velocity) over SEQ ID NO:109 ([7]; FIG. 6) | kcat ([7]; substrate dicamba, purified protein)
122 (protein, Dicamba decarboxylase variant clone DC.12.103) MAIIDCHGHYTTTPKGVEDYRNAQKAAVAKDPSFKGEKGQVVVSDDEIRESIENNQLKMQRERGTDLTIFSPRSTAGGHHIGNEYTSQFWTEHQNDLIRRVCDLFPKNFAPVAQLPQSPGVDPAKSVPEIVRTVEQMGFIGINLNPDPSGGYWKDTSLADRAFYPIYEKMVEYDIPAMIHPRNACNDCFHTTGSHALGADTTGFQQLIMSDVFKDFPSLKIIIPHGGGAVPYHWGRFRGLMQDQGYAPLEESALKNIYFDTCVYHQRGIDLLLDIVPTQNILFASDMIGAVRGIDPETGHNFDDTKRYIDNNTALNAEEKAMIFEGNARRVFSRLKTD | not detected | detected | not detected | have dicamba decarboxylase activity | High | not detected |  | 
123 (protein, Dicamba decarboxylase variant clone S03902153) MAQGKVALEEHFAIPETLQDSAGFVPGDYWKELQHRLLDIQDTRLKLMDAHGIETMILSLAAPAVQAIPDRRKAIEIARRANDVLAEECAKRPDRFLAFAALPLQDPDAATEELQRCVNDLGFVGALVNGFSQEGDGQTPLYYDLPQYRPFWGEVEKLDVPFYLHPRNPLPQDSRIYDGHPWLLGPTWAFAQETAVHALRLMASGLFDEHPRLNIILGHMGEGLPYMMWRIDHRVAWVKLPPRYPAKRRFMDYFNENFHITTSGNFRTQTLIDAILEIGADRILFSTDWPFENIDHASDWFNATSIAEADRVKIGRTNARRLFKLDGA |  |  |  |  | High |  | improvement | 
126 (protein, Dicamba decarboxylase variant clone S03970792) MAQGKVALEEHFAIPETLQDSAGFVPGDYWKELQHRLLDIQDTRLKLMDAHGIETMILSLAAPAVQAIPDRRKAIEIARRANDFLAEECAKRPDRFLAFAALPLQDPDAATEELQRCVNDLGFVGALVNGFSQEGDGQTPLYYDLPQYRPFWGEVEKLDVPFYLHPRNPLPQDSRIYDGHPWLLGPTWAFAQETAVHALRLMASGLFDEHPRLNIILGHMGEGLPYMMYRIDHRIAWVKLPPRYPAKRRFMDYFNENFHITTSGNFRTQTLIDAILEIGADRILFSTDWPFENIDHAADWFNATSIAEADRVKIGRTNARRLFKLDGA |  |  |  |  | High |  |  | 0.03967 s⁻¹
